# Measurements taken from paper doi:10.1101/2024.11.27.625426 (bioRxiv, 2024).
# Biological target: unmodified NA of A/Vietnam/1203/2004 (VN04, H5N1) (Influenza A virus A/Vietnam/1203/2004 …, UniProt Q6DPL2)
# Assay: ELISA
# Settings: both partners purified
row,Binder,binding result
1,"NCS.1.1 mAb (IgG) (antibody, V domains shown, copies: 2 + 2) VH: QVQLQESGPRLVKPSETLSLTCSVSGESISSGGYYWTWIRQHPGKGLEWIGNIFDTGSTDYSPSLKTRLTISIDTSKNQFYLRLNSATAADTAVYYCARVGFSLETDRPYYLGLDVWGQGTTVTVSS VL: DIVMTQSPLSLPVTPGEPASISCRSSQSLLHSNGYTYLDWYLQKPGQSPQLLISFTSNRASGVPDRFSGSGSGTYFTLKISRVEAEDVGVYYCMQAVQTPWTFGQGTKVEIK",binds
2,"NCS.1.3 mAb (IgG) (antibody, V domains shown, copies: 2 + 2) VH: QVQLQESGPRLVKPSETLSLTCSVSGESISSGGYYWTWIRQHPGKGLEWIGNIFDTGSTDYSPSLKTRLTISIDTSKNQFYLRLTSATAADTAVYYCARVGFSLETDRPYYLGLDVWGQGTTVTVSS VL: DIVMTQSPLTLPVTPGEPASISCRSSQSLLHSNGYTYLDWYLQKPGQSPQLLIYFASNRASGVPDRFSGSGSGTYFTLKISRVEAEDVGVYYCMQAVQSPWTFGQGTKVEIK",binds
